Data taken from publication PMC7988011, “NAC blocks Cystatin C amyloid complex aggregation in a cell system and in skin of HCCAA patients” (Nature Communications, 2021).
Several values for one entry are separate records, joined by “and”; a condition that tells them apart may be missing. Identical values can stand only once.

How the values were obtained:
P01034 = experiment: non-reducing SDS-PAGE with Western blot; supernatants and cellular extracts incubated with reduced glutathione (3 mM) at 37 °C before electrophoresis; HMW species quantitated by densitometry; conditions: other: non-reducing SDS-PAGE with Western blot
[1] = molecular target: the molecule itself; experiment: non-reducing SDS-PAGE with Western blot; lysates (1% NP-40 buffer) and supernatants of stable HEK-293T cells; 2% SDS sample buffer without reducing agent, not heated; NuPAGE 4-12% Bis-Tris; blotted with anti-cystatin C MAB1196

B1: L68Q variant of human cystatin C (natural protein, UniProt P01034 27-146, looked up)
chain: SSPGKPPRLVGGPMDASVEEEGVRRALDFAVGEYNKASNDMYHSRALQVVRARKQIVAGVNYFLDVEQGRTTCTKTQPNLDNCPFHDQPHLKRKAFCSFQIYAVPWQGTMTLSKSTCQDA
notes: Vector pBABE-CMV-Puro; also called L68Q-hCC; hCC L68Q
With B1 the “percent reduction of HMW species with 3 mM GSH (secreted fraction)” value (P01034) was “≈90% reduction of the HMW in the secreted fraction” and the “stoichiometry N” value [1] was 2 and 3 and 4.
